PMC4949953

Molecular target: computationally redesigned, water-soluble variant of the human μ-opioid receptor (MOR) (human) (UniProt P35372)
Assay: MoS2 field effect transistor biosensor

With “[D-Ala^2, N-MePhe^4, Gly-ol]-enkephalin (peptide)” the Kd was 87 nM.
